Reference: publication PMC4967961

Assays:
HuRΔIII (ΔRRMIII) [1] = target: T1, HuRΔIII (ΔRRMIII) (UniProt Q15717 1-243); assay: EMSA; EMSA: 20 mM Tris-HCl pH 7.8, 150 mM KCl, 2 mM MgCl2, 0.1% Triton X-100, 0.5 mM DTT, heparin 5 mg/ml, BSA 1 mg/ml, 10% glycerol, on ice 15 min; 6% native PAGE, 0
HuRΔIII (ΔRRMIII) [2] = target: T1, HuRΔIII (ΔRRMIII); assay: displacement from Ago2 miRNPs, HuR IP and qRT-PCR; 300 nM protein, 5 mM Mg2+, 30 C, 60 min; EMSA: 20 mM Tris-HCl pH 7.8, 150 mM KCl, 2 mM MgCl2, 0.1% Triton X-100, 0.5 mM DTT, heparin 5 mg/ml, BSA 1 mg/ml, 10% glycerol, on ice 15 min; 6% native PAGE, 0

T1 sequence (Q15717 1-243, stated change not applied): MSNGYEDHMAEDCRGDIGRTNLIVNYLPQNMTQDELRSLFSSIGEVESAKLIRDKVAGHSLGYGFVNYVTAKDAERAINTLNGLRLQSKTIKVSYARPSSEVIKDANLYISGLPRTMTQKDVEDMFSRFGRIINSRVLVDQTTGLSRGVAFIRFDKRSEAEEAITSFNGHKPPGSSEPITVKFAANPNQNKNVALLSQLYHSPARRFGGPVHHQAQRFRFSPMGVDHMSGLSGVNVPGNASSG

| Binder | binding result (HuRΔIII (ΔRRMIII) [1]) | binding signal (HuRΔIII (ΔRRMIII) [2]) |
| --- | --- | --- |
| AUUAUUUAUUAUUUAUUUAUUAUUUAUUUAUUUA (ssRNA) [TNF-alpha 3'UTR ARE RNA] | binds |  |
| UGGAGUGUGACAAUGGUGUUUG (ssRNA) [miR-122 from cell-expressed Ago2 miRNPs] |  | ~14 fold reduction vs full-length HuR |
